{"source": "paper PMC12451656", "about": "“HMGB1 B‑Box Domain Associates Promote Protein–Polyelectrolyte Interactions” (The Journal of Physical Chemistry. B, 2025)", "molecular_target": "the molecule itself", "experiment": "dynamic light scattering; as-prepared, unfiltered B-box, 30 μM, 25 mM Tris-HCl pH 6.9, 150 mM NaCl, 25 °C, backscattering mode; the retentate of the 30 kDa filter was also measured (Figure S6)", "data": [{"protein": "HMGB1 B-box domain (domain or fragment, human, initiator methionine followed by the triplet alanine-arginine-isoleucine (ARI), inserted through the forward primer for better expression; HMGB1 (high mobility group box 1), human, B-box domain, cloned from the human HMGB1 cDNA; Numbers count on: the construct (Cys19 = Cys106 of full-length HMGB1; Trp46); By the reverse primer, the XhoI site adds LE between V176 and the SGS-His8 tag; The DLS …) MARIDPNAPKRPPSAFFLFCSEYRPKIKGEHPGLSIGDVAKKLGEMWNNTAADDKQPYEKKAAKLKEKYEKDIAAYRAKGKPDAAKKGVV", "values": [{"measurement": "stoichiometry N", "result": "~8"}]}]}
